The test addresses -. Kind of test: competition binding, 125I-PTH(1-15) tracer, HKRK-B28 cells.

Non-standard residues stand in square brackets, D forms with d. No end group written: not given here. Bpa = N[C@@H](Cc1ccc(C(=O)c2ccccc2)cc1)C(=O)O; hArg = N=C(N)NCCCC[C@H](N)C(=O)O; Ac5c = NC1(C(=O)O)CCCC1; Deg = CCC(N)(CC)C(=O)O; desNH2 = X is (desNH2); Aib = CC(C)(N)C(=O)O

Results on four molecules are retold here after patent publication US20070203071A1 (published 2007).

Molecule desNH2-[Ac5c]V[Aib]EIQLMHQ[hArg]AKW-NH2 [desNH2-AC5C1] had an IC50 of 1800 nM.

B1: parent (peptide)
peptide: [Ac5c]V[Aib]EIQLMHQ[hArg]AKW-NH2
modifications: N-terminus assumed
SMILES: CC[C@H](C)[C@H](NC(=O)[C@H](CCC(=O)O)NC(=O)C(C)(C)NC(=O)[C@@H](NC(=O)C1(N)CCCC1)C(C)C)C(=O)N[C@@H](CCC(N)=O)C(=O)N[C@@H](CC(C)C)C(=O)N[C@@H](CCSC)C(=O)N[C@@H](Cc1c[nH]cn1)C(=O)N[C@@H](CCC(N)=O)C(=O)N[C@@H](CCCCNC(=N)N)C(=O)N[C@@H](C)C(=O)N[C@@H](CCCCN)C(=O)N[C@@H](Cc1c[nH]c2ccccc12)C(N)=O
Molecule B1 gave an IC50 of 30 nM.

B2: Deg1,3 (peptide)
peptide: [Deg]V[Deg]EIQLMHQ[hArg]AKW-NH2
modifications: N-terminus assumed
SMILES: CC[C@H](C)[C@H](NC(=O)[C@H](CCC(=O)O)NC(=O)C(CC)(CC)NC(=O)[C@@H](NC(=O)C(N)(CC)CC)C(C)C)C(=O)N[C@@H](CCC(N)=O)C(=O)N[C@@H](CC(C)C)C(=O)N[C@@H](CCSC)C(=O)N[C@@H](Cc1c[nH]cn1)C(=O)N[C@@H](CCC(N)=O)C(=O)N[C@@H](CCCCNC(=N)N)C(=O)N[C@@H](C)C(=O)N[C@@H](CCCCN)C(=O)N[C@@H](Cc1c[nH]c2ccccc12)C(N)=O
For B2, the half-inhibitory concentration (IC50) was found to be 230 nM.

B3: Deg1,3,Bpa2 (peptide)
peptide: [Deg][Bpa][Deg]EIQLMHQ[hArg]AKW-NH2
modifications: N-terminus assumed
SMILES: CC[C@H](C)[C@H](NC(=O)[C@H](CCC(=O)O)NC(=O)C(CC)(CC)NC(=O)[C@H](Cc1ccc(C(=O)c2ccccc2)cc1)NC(=O)C(N)(CC)CC)C(=O)N[C@@H](CCC(N)=O)C(=O)N[C@@H](CC(C)C)C(=O)N[C@@H](CCSC)C(=O)N[C@@H](Cc1c[nH]cn1)C(=O)N[C@@H](CCC(N)=O)C(=O)N[C@@H](CCCCNC(=N)N)C(=O)N[C@@H](C)C(=O)N[C@@H](CCCCN)C(=O)N[C@@H](Cc1c[nH]c2ccccc12)C(N)=O
The molecule B3 showed an IC50 of 840 nM.
